{
  "source": "ChEMBL document CHEMBL1130869",
  "about": "“Peptide-based inhibitors of the hepatitis C virus serine protease” (Bioorg Med Chem Lett, 1998)",
  "substrate": "CC[C@H](C)[C@H](NC(=O)[C@H](CC(=O)O)NC(=O)[C@@H](N)CC(=O)O)C(=O)N[C@H](C(=O)N1CCC[C@H]1C(=O)N[C@@H](CS)C(=O)O)C(C)C",
  "assay": "Km against NS3-4Apep protease determined by non-linear regression analysis of the velocity data",
  "format": "protein-complex assay",
  "details": "Hepacivirus hominis",
  "data": [
    {"protein": "Hepatitis C virus serine protease, NS3/NS4A (Hepatitis C virus), D2K2A8+A3EZI9 (protein) chain 1: STWVLLGGVLAALAAYCLSVGCVVIVGYIELGGKPALVPDKEVCYQQYDEMEEC chain 2: APITAYAQQTRGLLGCIITSLTGRDKNQVEGEVQIVSTAAQTFLATCINGVCWTVYHGAGTRTIASSKGPVIQMYTNVDQDLVGWPAPQGARSLTPCTCGSSDLYLVTRHADVIPVRRRGDGRGSLLSPRPISYLKGSSGGPLLCPAGHAVGIFRAAVCTRGVAKAVDFIPVEGLETTMRSPVFSDNSSPPAVPQSYQVAHLHAPTGSGKSTKVPAAYAAQGYKVLVLNPSVAATLGFGAYMSKAHGIDPNIRTGVRTITTGSPITYSTYGKFLADGGCSGGAYDIIICDECHSTDATSILGIGTVLDQAETAGARLTVLATATPPGSVTVPHPNIEEVALSTTGEIPFYGKAIPLEAIKGGRHLIFCHSKKKCDELAAKLVALGVNAVAYYRGLDVSVIPASGDVVVVATDALMTGFTGDFDSVIDCNTCVTQTVDFSLDPTFTIETTTLPQDAVSRTQRRGRTGRGKPGIYRFVTPGERPSGMFDSSVLCECYDAGCAWYELTPAETTVRLRAYMNTPGLPVCQDHLEFWEGVFTGLTHIDAHFLSQTKQSGENLPYLVAYQATVCARAQAPPPSWDQMWKCLIRLKPTLHGPTPLLYRLGAVQNEITLTHPITKYIMTCMSADLEVVT", "values": [
      {"measurement": "Km", "value": 37, "unit": "µM"}
    ]}
  ]
}
